Reference: the DeepSol protein solubility set

assay: soluble on expression in E. coli; label from the status in PepcDB or PDB records

| Sequence | soluble on expression in E. coli |
| --- | --- |
| MRLVDLRSDTLTRPTPAMRKAMAEAEVGDDAYGEDPTVNRLEALAAERLGFERALFLPSGTMANQVALLLHLPKELEAEARRYRKLLGGGWRQAGVLAAAGILALEEGPKHLRRDHEMARALAEGLFRLGLAVDLGAVETNMVYLEVEDPEGFLQGLRARGVLAGRVGGRVRFVTHRDLMDEDIPLALERVQDLLHSRPR | soluble |
| MRMLRRLRRATVAAAVWLATVCLVASCANADPLGSATGSVKSIVVGSGDFPESQVIAEIYAQVLQANGFDVGRRLGIGSRETYILALKDHSIDLVPEYIGNLLLYFQPDATVTMLDAVELELYKRLPGDLSILTPSPASDTDTVTVTAATAARWNLKTIADLAPHSADVKFAAPSAFQTRPSGLPGLRHKYSLDIAPGNFVTINDGGGAVTVRALVEGTATAANLFSTSAAIPQNHLVVLEDPEHNFLAGNIVPLVNSRKKSDHLKDVLDAVSAKLTTAGLAELNAAVSGNSGVDPDQAARKWVRDNGFDHPVRQ | soluble |
| MRNKNMSTIYQTSATASAGRNGVVSTEDKLLELNLSYPKEMGGSGTATNPEQLFAVGYAACFSNAILHVAREAKVALKEAPVTATVGIGPNGQGGFALSVALAAHIALEDEQARQLVTVAHQVCPYSNAVRGNIDVQVSVNGLAL | not soluble |
| MRNVLKAETLERKFPLLSVENGCIVSKDADLTVAFEVELPELFTMTAAEYEAVHSSWVKAVKVLPDFSVVCKQDWFTKETYRPDFRDGEQSFLSKSYERHFNERPYLNHKCYLYLTKTTRERSRQRSDFNSLCCGSLLPKEMVDKDTAVRFLEAVEQFERIMNDSGHVSLRRLEADEITGTEGRPGLVEKYFSLSLEDETAVLQDICLNPGGMRVGDKRLCVHTLSDTEDLPVRVSTDMRYGRMSTDRSDCRLSFAAPVGLLLPCNHIYSQYVFIDDAQEILRTMEKTSRNMLSLSKYSRSNAVNREWTEMYLDEAHTKGVLPVRCHCNVMAWAEDREELRRVKNDTGSQLAMMECTPRHNTVDAPVLYWAGIPGNAGDFPAEESFYTFLEQAVCLFTAETNYRSSSSPFGIRMADRRNGIPLHVDISDLPMKRGIITNRNKFVLGPSGSGKSFFTNHLVRQYYEQGTHILLVDTGNSYQGLCRMIHDRTHGEDGIYITYEEDNPIAFNPFYTDSGQFDVEKRESIKTLILTLWKREDEAPKRSEEVALSGAVNAYIRRITDDRASRPDFNGFYEFVRDDYRRMIEQKKVREKDFDIDGFLNVLEPFYRGGDYDFLLNSDKELDLTNKRFIVFELDNISSNKVLLPVVTLIIMETFISKMRKLRGIRKMILIEECWKALMSANMSEYIKYLFKTVRKYFGEAVVVTQEVDDIISSDIVKEAIINNSDCKILLDQRKYMNKFEHIQKLLGLTEKERGQILSINRANRPGPFYREVWIGLGGTHSAVYATEVSAEEYAVRP | not soluble |
| MRPARALIDLQALRHNYQLAREVTGAKALAVIKADAYGHGAVRCAQALEAEADGFAVACIEEALELRAAGIRAPILLLEGFFEADELPLIVEHDFWCVVHSLWQLDAIEQARLAKPIHVWLKLDSGMHRVGLHPNDYKAAYQRLQASANVAKIVLMSHFARADELDCTRSVEQVAVFLGARADLTAEISLRNSPAVLGWPRVPSDWVRPGLMLYGSSPFDEPQATASRLQPVMTLESKVICVRELPAGEPVGYGARFITPKPMRIGVVAMGYADGYPRQAPTGTPVFVDGVRSQLLGRVSMDMLCIDLTDVPQAGLGSTVELWGKNILASEVATAADTIPYQIFCNLKRVPRLYSGN | soluble |
| MRPDFGTDGRLPSALSMGTADVAFHLATGGNPVPLAFTFGFEGRAPTLDSVRARVAERVHHVPALRYRIARDRRKFRRVDRIAVDRHVHEAWLPEDTDGSATSRLMLSRPMSTDDRPPWDVWLVHGPAERHTLVYRTDHTFQDGMGAAYTARALLGDHPEGGPAPQRPARPTAHGLADALGEVVAAFRAPTPKPAFDGDFTGRVDVCHADTPLARLRAIARAHGGTVTDVYLAALSHAVRTWYLKDTGSAHPPLPVSIPMSVRAPGEEYAPGNRMVTARLLLPCDEESPQRALARVVAGTGRLRESRRRDAMRLLLSASPRALGATVGTRLVRGAFVAGPVSSVNFGTALVHQGVAARRSAVFAGVASGIRCVTTLTSQHDTACLTVVHDEALATADELPDLWLAALLELERPLEHHHHHH | not soluble |
| MRPEHLSLQLLAWIYLINGNPIVQKGGLEVLDITDSNDLSVRQRFEEVIRLDCASQRRKALKRKTDGDARIYIPTCSPKNSLLYDKVQCYDVSIYCWCVDELSGEPKLGSSTTRGKPKCEETPTTTVAPKRVRRNNRCKEKKRTRFLRRLVSTLKSEMIMSGINATKVSRDSAIRWKFNQLNINHNNVLERSEWKPFKSVLLEWKNVRQCSRNLFKTCDLNKDRKLTFDEWRKCIVQEINRVPAKRPDQLNPFLYILRSE | soluble |
| MRPIEEFVYVGNQVIVPDQASLMRCYYPIIGGEGYALYQYFVAFYDNGNHRHKFATILNHLNFGMQPLQESLAVLTAVDLLAFYHSPQGIYVVELKSPLSIEQFLKHAVYSSLLEQKIGEPAVDALKPTSLHGLQDLSKRFSDVFTDERLAQKSVSEIKPKNSFDLISFRNRMQADGLVFTDEKTDVPEIYKLSETYDMNWYDTYLLSKKTAVNHRIIVKRMQVQLEQAQAQKLGGDSALTETEKKILKAVKSGKPVDYLQSAKGPGGTVTNSEKKILTDLAQRGFMDEVINLMVAYSLGRTRSTNVNREYISKVANDFDFKKIVTAEQGLLALRSGYDKKSQRAKDDSKKKTNVPSWSDPDYDNQTNQADQAKLDEIRRRALAKLEKG | not soluble |
| MRQHRPALELSRLPELLSRIDGYKGQPVTRLAVMLNLLVFIRSSELRYARWSEIDIDNSMWTIPAEREPLPGVKFSHRGSKMRTPHLVPLSKQVVAILAELQTWAGENGLIFTGAHDPRKPISENTVNKALRVMGYDTTQEVCGHGFRAMACSALIESGLWSRDAVERQMSHQELEHHHHHH | not soluble |
| MRQIETQQLEAETSFTERIAEDRVKCAAQRESLERQLQDLTATDNKLSEQKRDWEERQEKAYDELMSYLENEDVDSAGTQFGDHFNSLIKSMNNLSHDSMNGQFNSLKNNLDELNIEKKQLEVAIADQSSTISEMIPSLRPTCGATYKERNTLRIIFHYQVAKLRSEYQKCRLQEEALKARLST | not soluble |
| MRQQNGWVLKGGTNIYCRIPGARQTKDLDLYRRDDPTSSTGAAESLVSAMNGYKIGPYIFHVIHPRQSGGVGTVDSERIDVTVIHGINNRLVSFGVDVSGDLEVTGTVEPVTVATSYKVHTEFLPQRFKVYSYPVASQIADKICAMYERHGNTPPGRASTRYHDLYDVALMARELTVSAFDLRSALDTQCRVRNMSLPNHLTIPDESWKDQYPIKARNFGDEQWGLTELDEALRVAGLLINPILNREFKESDRAWNCTALLWE | not soluble |
| MRQYVCCNYNEKEIKMKKFHFTDTSLFWGFSEEEAESVLKCLSAVNKTYKKDEYIFRMGDTITSVGMVLTGSVQVIREDYWGNRQIIAVMGEGQLFGESYACAGGEPLMVSVMAEENTEVLFLEVGRLLTVCSMACRFHSRVIQNLLKVIAGRNLTLTTKIDHMSKKTIREKVLSYLSYQAEKQGKNRFEIPFNRQQLADYLAVDRSALSAELSKMQKEKLISYDRNHFILP | not soluble |
| MRRILVLTKNILVEQTFQQQLQHLNYEVFCTNCCEETIEHELTFFNYFDAIVLSETLSQNDCLRLLGSLSSLEKPIYRRSQSMCNKREAEIWQERGIIRWLGLKDSLEDIREKIDTVDQSFAEVTAELLDDQVKKIRFTKNEQRFLKILYQHAHEGLDRDQICRLLWQKEPDASTKSQLSFVCKRVKQKFSDAGMNEEIITTYWGKGYQINEQILPYLEQTLFETAQ | not soluble |
| MRRNIRVTLGAATIVAALGLSGCSHPEFKRSSPPAPSLPPVTSSPLEAAPITPLPAPEALIDVLSRLADPAVPGTNKVQLIEGATPENAAALDRFTTALRDGSYLPMTFAANDIAWSDNKPSDVMATVVVTTAHPDNREFTFPMEFVSFKGGWQLSRQTAEMLLAMGNSPDSTPSATSPAPAPSPTPPG | soluble |
